# According to patent US20230303654A1 (CITY OF HOPE, published 2023):
# Read-outs that look alike come from different tables or passages of the source.
# Key:
# [1] = target: T1, purified 6× His-tagged SARS-CoV-2 spike protein (ELISA coat, Example 12) (SARS-CoV-2, UniProt P0DTC2 14-1213)
# [2] = target: T1, purified 6× His-tagged SARS-CoV-2 spike …; remark: listed apart in the source
Binder,EC50 [1] [nM],EC50 [2] [nM]
Anti-spike RBD Ab37 scFv (scFv) scFv: ELMLTQPPSVSVAPGQTARITCGGNNIGSKSVHWYQQKPGQAPVLVVYDDSDRPSGIPERFSGSNSGNTATLTISRVEAGDEADYYCQVWDNTLLFGGGTELTVLGGGSSRSSGVQLVESGGGLVQPGGSLRLSCSASGFTFSSYAMHWVRQAPGKGLEYVSGISSNGGGTHYADSVKGRFSISRDNSKNTLYLQMSSLRAEDTAVYYCVKDDSGSYFSLFDHWGQGTLVTVSSASTKGPSV,5.28,5.18
Anti-spike RBD Ab27 scFv (scFv) scFv: ELQMTQSPSSLSASVGDRVTITCRASQSISSYLNWYQQKPGKAPKLLIYAASSLQSGVPSRFSGSGSGTDFTLTISSLQPEDFATYYCQQANSFPFTFGPGTKVDIKGGSSRSSQVQLVQSGAEVKKPGASVKVSCKASGYTFTSYGISWVRQAPGQGLEWMGWVNPNGGHTGYAQKFQGRVTMTRHTATNTVYMELSSLTSDDTAVYYCARGKGYYYGMDVWGQGTTVLVSSASTKGPSV,8.85,
Anti-spike RBD Ab39 scFv (scFv) scFv: ELVLTQSPGTLSLSPGERATLSCRASQSLYNNFLAWYQQKPGQAPRLLIYAASNRATGIPDRFSGSGSGTDFTLTISRLEPEDFAVYYCQQYGSSPGYTFGQGTKLEIKGGSSRSSQVQLVQSGAEVKKPGSSVKVSCKASGGTFSSYAISWVRQAPGQGLEWMGGIIPIFGTANYAQKFQGRVTITADESTSTAYMELSSLRSEDTAVYYCARTLRQYYYYGMDVWGQGTTVTVSSGSASAPTL,4.93,
